Molecular target: the molecule itself
Assay: SEC

B1: SusD (residues 26-551) of Bacteroides thetaiotaomicron (domain or fragment, Bacteroides thetaiotaomicron ATCC 29148, UniProt Q8A1G2 26-551, looked up)
chain: INDLDISPIDPQTGGSFDQQGVFVKGYAMLGVTGQKGIDGSPDLDGQDEGESGFYRTTFNCNELPTDECLWAWQENQDIPQLTSISWSPSSQRTEWVYVRLGYDITQYNFFLDQTEGMTDAETLRQRAEIRFLRALHYWYFLDLFGKAPFKEHFSNDLPVEKKGTELYTYIQNELNEIEADMYEPRQAPFGRADKAANWLLRARLYLNAGVYTGQTDYAKAEEYASKVIGSAYKLCTNYSELFMADNDENENAMQEIILPIRQDGVKTRNYGGSTYLVCGTRVAGMPRMGTTNGWSCIFARAAMVQKFFSNLEDVPMLPADVEIPTKGLDTDEQIDAFDAEHGIRTEDMIKAAGDDRALLYSGVGGGRRKIQTDAISGFTDGLSIVKWQNYRSDGKPVSHATYPDTDIPLFRLAEAYLTRAEAIFRQGGDATGDINELRKRANCTRKVQTVTEQELIDEWAREFYLEGRRRSDLVRFGMFTTNKYLWDWKGGAMNGTSVASYYNKYPIPVSDINNNRNMSQNEGYK
- stoichiometry N: 2
